How the values were obtained:
[1] = target: T1, mutant kcsa K+ channel (Q58A, T61S, R64D) (Streptomyces lividans, UniProt P0A334, P2A/Q58A/R64D/T61S); test: Mutant kcsa K+ channel cobalt column screen of scorpion venom, eluate analysed by MALDI-TOF mass spectrometry; type: binding; conditions: 40 mg Leiurus quinquestriatus hebraeus venom on 1 mL column, imidazole elution
T1 construct: made in house; host or cells: E. coli XL-1 Blue
T1 sequence (P0A334 1-158 P2A/Q58A/T61S/R64D limits assumed): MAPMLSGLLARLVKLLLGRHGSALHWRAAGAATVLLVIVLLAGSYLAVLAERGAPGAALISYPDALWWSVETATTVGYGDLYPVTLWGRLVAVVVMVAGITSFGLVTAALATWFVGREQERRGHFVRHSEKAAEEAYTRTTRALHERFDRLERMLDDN
Source text: FIG. 10. Mass Spectra of scorpion toxins before and after channel column purification MALDI-TOF mass spectra of venom before purification (A) and after elution from a cobalt column in the absence (B) and presence (C) of attached mutant kesa K^+ channel. The accuracy of the mass measurements (±0.3 Da) permitted identification of most of the major peaks in the mass spectra searched from databases of known toxins of the Leiurus quinquestratus hebraeus scorpion (D). The kesa-binding component labeled * could not be assigned to a known scorpion toxin. The component labeled X (4193.0 Da) binds nonspecifically to the column and was not identified. MALDI_MS was performed with the MALDI matrix 4-hydroxy-α-cyano-cinnamic acid (16 of Example II).
Three mutations (Q58A, T61S, R64D) were introduced into the kcsa K^+ channel gene to modify its pore region sequence using PCR mutagenesis and confirmed by DNA sequencing. The gene also contained a mutation at the second residue (P2A) to introduce an ncol restriction endonuclease site and it was lacking the last two carboxyl terminal residues (both Arg) to avoid proteolysis during the protein preparation. This gene was cloned into the pQE60 vector for expression with a carboxyl terminal thrombin and hexahistidine fusion. Channel protein was expressed in XL-1 Blue strain of E. coli (Stratagene) by induction with […] at a concentration of 1.0 mM. Three hours following induction bacteria were sonicated in 50 mM Tris buffer (7.5), 100 mM KCl, 10 mM Mg2SO4, 25 mg DNAse 1, 250 mM sucrose, in addition to pepstatin, leupeptin, and PMSF. The channel was extracted in the same solution containing 40 mM decylmaltoside (Anatrace) at room temperature. […]
Guided by knowledge of the toxin receptor on the Shaker K^+ channel, set forth in SEQ ID NO:4, three point mutations were introduced into the kcsa K^+ channel (SEQ ID NO: 1) that should render it sensitive to scorpion toxins (FIG. 9). […] The eluate was analyzed with MALDI-TOF mass spectrometry, focusing on the low mass range appropriate for scorpion toxins (about 4000 Da). […]

[2] = target: T1, mutant kcsa K+ channel (Q58A, T61S, R64D); test: Competition binding assay: unlabeled toxin against labeled Agitoxin2 on mutant kcsa K+ channel resin; conditions: for Kd: labeled toxin 0.06 μM, Kdhot 0.62 μM, FIG. 11B, read-out: competing toxin dissociation constant Kdcold; for decrease of affinity caused by the toxin mutation: relative to wild type agitoxin2
Source text: Three mutations (Q58A, T61S, R64D) were introduced into the kcsa K^+ channel gene to modify its pore region sequence using PCR mutagenesis and confirmed by DNA sequencing. The gene also contained a mutation at the second residue (P2A) to introduce an ncol restriction endonuclease site and it was lacking the last two carboxyl terminal residues (both Arg) to avoid proteolysis during the protein preparation. This gene was cloned into the pQE60 vector for expression with a carboxyl terminal thrombin and hexahistidine fusion. Channel protein was expressed in XL-1 Blue strain of E. coli (Stratagene) by induction with […] at a concentration of 1.0 mM. Three hours following induction bacteria were sonicated in 50 mM Tris buffer (7.5), 100 mM KCl, 10 mM Mg2SO4, 25 mg DNAse 1, 250 mM sucrose, in addition to pepstatin, leupeptin, and PMSF. The channel was extracted in the same solution containing 40 mM decylmaltoside (Anatrace) at room temperature. Following centrifugation the supernatant was bound to cobalt resin (Talon) at a protein to resin ratio that will saturate the resin. The resin was washed, and detergent concentration was lowered to 10.0 mM. One mL columns were prepared. The control resin (no channel) was handled in the same manner. The resin preparation was the same for mass spectrometry and binding studies.
(§1) Wild type and mutant agitoxin2 were prepared (10). Tritiated N-ethylmaleimide (NEN Life Sciences) was conjugated to agitoxin2 D20C (14). Binding was performed in a 300 μL volume containing 50 mM Tris (7.5), 100 mM KCl, 10 mM declymaltoside, and 0.3 μL of cobalt resin saturated with the mutant kcsa K^+ channel for 30 minutes at room temperature. Following brief centrifugation the supernatant was removed, resin was applied to a filter, rinsed briefly with ice cold buffer, and then counted in a scintillation counter. All binding measurements were made with a paired control containing a saturating concentration (200 times KD) of unlabeled wild type agitoxin2 to determine nonspecific binding. The competition assay was carried out under the same conditions. Labeled Agitoxin2 at 0.06 μM was always present and unlabeled toxin was added to compete with bound labeled toxin.
as §1, with “17. Wild” for “Wild”, “Kd)” for “KD)”

Substance | binding to the channel column (mass peak in the eluate) [1] | Kd [2] | decrease of affinity caused by the toxin mutation [2]
chlorotoxin | did not bind |  | 
K27A: Agitoxin2 mutant, Lys 27 substituted by alanine |  | 81 µM | 130 fold
charybdotoxin | dramatic enhancement of specific peaks |  | 
N30A: Agitoxin2 mutant, Asn 30 substituted by alanine |  | 27 µM | 45 fold
agitoxin2 | dramatic enhancement of specific peaks | 0.62 µM | 
